Substitutions are numbered along the chain they refer to. Like-named read-outs stand apart in the source and are kept apart here.

For assay [1], the target named is T1, HLA-DQ7.3 on Ba/F3 cells (human, UniProt P01909 24-216; P01920 33-230, limits assumed).
T1 construct: whole, on cells; also called Ba/F3-HLA-DQ7.3
T1 MHC II alpha: not shown
T1 MHC II beta: not shown
In words: FACS, Ba/F3 cells; %MFI: IC17dK 0, DQN0139bb 100. On the technique in general: A flow cytometer gives signals particle by particle.

Assay [2] deals with T2, HLA-DQ8 on Ba/F3 cells (human, UniProt P01909 24-216; P01920 33-230, limits assumed).
T2 construct: whole, on cells; also called Ba/F3-HLA-DQ8
T2 MHC II alpha: not shown
T2 MHC II beta: not shown
Put plainly: FACS, Ba/F3 cells; %MFI: IC17dK 0, DQN0139bb 100.

For assay [3], the target named is T3, HLA-DQ2.2 on Ba/F3 cells (human, UniProt P01909 24-216, limits assumed).
T3 construct: whole, on cells; also called Ba/F3-HLA-DQ2.2
T3 MHC II alpha: not shown
T3 MHC II beta: not shown
In words: FACS, Ba/F3 cells; %MFI: IC17dK 0, DQN0139bb 100.

Assay [4] addresses T4, HLA-DQ2.5 on Ba/F3 cells (human, UniProt P01909 24-216, limits assumed).
T4 construct: whole, on cells; MHC class II without fused peptide; also called Ba/F3-HLA-DQ2.5
In words: FACS, Ba/F3 cells; %MFI: IC17dK 0, DQN0139bb 100.

Assay [5] addresses T5, HLA-DQ7.5 on Ba/F3 cells (human, UniProt P01909 24-216; P01920 33-230, limits assumed).
T5 construct: whole, on cells; also called Ba/F3-HLA-DQ7.5
In words: FACS, Ba/F3 cells; %MFI: IC17dK 0, DQN0139bb 100.

Assay [6] addresses T6, HLA-DP on Ba/F3 cells (human, UniProt P20036 29-222; P04440 30-225, limits assumed).
T6 construct: whole, on cells; also called Ba/F3-HLA-DP
In words: FACS, Ba/F3 cells; raw MFI.

For assay [7], the target named is T7, HLA-DQ5.1 on Ba/F3 cells (human, limits assumed).
T7 construct: whole, on cells; also called Ba/F3-HLA-DQ5.1
T7 MHC II alpha: not shown
T7 MHC II beta: not shown
In words: FACS, Ba/F3 cells; raw MFI.

Assay [8] has as its target T8, HLA-DQ6.3 on Ba/F3 cells (human, UniProt P01920 33-230, limits assumed).
T8 construct: whole, on cells; also called Ba/F3-HLA-DQ6.3
T8 MHC II alpha: not shown
T8 MHC II beta: not shown
In words: FACS, Ba/F3 cells; raw MFI.

Assay [9] deals with T9, HLA-DR on Ba/F3 cells (human, UniProt P01903 26-216; P79483 30-227, limits assumed).
T9 construct: whole, on cells; also called Ba/F3-HLA-DR
T9 MHC II alpha: not shown
T9 MHC II beta: not shown
In words: FACS, Ba/F3 cells; raw MFI.

The target of assay [10] is T10, HLA-DQ2.5 on IHW09023 cells loaded with gamma 3 gliadin peptide (human; wheat). Put plainly: cell-based or functional assay.
Assay [11] concerns the target T11, HLA-DQ2.5 on IHW09023 cells loaded with 33mer gliadin peptide (human; wheat). In words: cell-based or functional assay.
For assay [12], the target named is T12, HLA-DQ2.5 on IHW09023 cells loaded with gamma 1 gliadin peptide (human; wheat). In words: cell-based or functional assay.
For assay [13], the target named is T13, HLA-DQ2.5 on IHW09023 cells loaded with gamma 4d gliadin peptide (human; wheat). Put plainly: cell-based or functional assay.
The target of assay [14] is T14, HLA-DQ2.5 on IHW09023 cells loaded with gamma 2 gliadin peptide (human; wheat). In words: cell-based or functional assay.
In assay [15] the target is T15, HLA-DQ2.5 on IHW09023 cells loaded with gamma 4a gliadin peptide (human; wheat). Put plainly: cell-based or functional assay.
The target of assay [16] is T16, HLA-DQ2.5 on IHW09023 cells loaded with BC hordein peptide (human; barley). Put plainly: cell-based or functional assay.
Assay [17] concerns the target T17, HLA-DQ2.5 on IHW09023 cells loaded with omega1/2 gliadin peptide (human; wheat). Put plainly: cell-based or functional assay.
Assay [18] concerns the target HLA-DQ2.2 on HBBB2.2 cells loaded with 33mer gliadin peptide (human; wheat). In words: cell-based or functional assay.
Assay [19] has as its target T10, HLA-DQ2.5 on IHW09023 cells loaded with …. Put plainly: cell-based or functional assay. The source holds these as a separate data set.
Assay [20] has as its target T11, HLA-DQ2.5 on IHW09023 cells loaded with …. In words: cell-based or functional assay. The source holds these as a separate data set.
For assay [21], the target named is T12, HLA-DQ2.5 on IHW09023 cells loaded with …. Put plainly: cell-based or functional assay. This is another data set of the same source.
Assay [22] concerns the target T13, HLA-DQ2.5 on IHW09023 cells loaded with …. Put plainly: cell-based or functional assay. This is another data set of the same source.
Assay [23] concerns the target T14, HLA-DQ2.5 on IHW09023 cells loaded with …. Put plainly: cell-based or functional assay. The source holds these as a separate data set.
Assay [24] deals with T15, HLA-DQ2.5 on IHW09023 cells loaded with …. Put plainly: cell-based or functional assay. The source holds these as a separate data set.
Assay [25] addresses T16, HLA-DQ2.5 on IHW09023 cells loaded with …. In words: cell-based or functional assay. This is another data set of the same source.
Assay [26] deals with T17, HLA-DQ2.5 on IHW09023 cells loaded with …. Put plainly: cell-based or functional assay. This is another data set of the same source.

T6 sequence (P20036 29-222 limits assumed, chain 1 of 4, other chains not shown): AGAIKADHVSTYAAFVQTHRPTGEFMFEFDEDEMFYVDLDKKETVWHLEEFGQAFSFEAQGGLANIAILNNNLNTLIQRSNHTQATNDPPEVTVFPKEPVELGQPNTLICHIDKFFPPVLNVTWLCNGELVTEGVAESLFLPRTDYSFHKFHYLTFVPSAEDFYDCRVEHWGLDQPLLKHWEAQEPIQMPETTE
T6 sequence (P04440 30-225 limits assumed, chain 2 of 4, other chains not shown): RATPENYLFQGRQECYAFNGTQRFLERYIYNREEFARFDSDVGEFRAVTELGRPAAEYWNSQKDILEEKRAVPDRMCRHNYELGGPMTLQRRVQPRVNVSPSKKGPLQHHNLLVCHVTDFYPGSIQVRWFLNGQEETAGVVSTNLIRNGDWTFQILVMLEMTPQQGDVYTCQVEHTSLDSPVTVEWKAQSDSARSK

B1: DQN0344H1013/L0620//DQN0385H1270/L0722-F6 (bispecific antibody)
heavy 1: QVQLVESGGGVVQPGRSLRLSCAASGFTFSSAYWMVWVRQAPGQGLEWMGAVYGGSDTTYYAKWTEGRFTISRDTSKNTLYLQMNSLRAEDTAVYYCAREPLNYYYYGELNVWGQGTLVTVSSASTKGPSVFPLAPSSKSTSGGTAALGCLVKDYFPEPVTVSWNSGALTSGVHTFPAVLKSSGLYSLSSVVTVPSSSLGTQTYICNVNHKPSNTKVDKRVEPKSCDKTHTCPPCPAPELRRGPSVFLFPPKPKDTLMISRTPEVTCVVVDVSHEDPEVKFNWYVDGVEVHNAKTKPREEQYNSTYRVVSVLTVLHQDWLNGKEYKCKVSNKALPAPIEKTISKAKGQPREPQVYTLPPSREEMTKNQVSLTCLVKGFYPSDIAVEWESNGQPENNYKTTPPYLDSDGSFFLYSKLTVDKSRWQEGNVFSCSVLHEALHAHYTREELSLSP
light 1: DIQMTQSPSSLSASVGDRVTITCQATENIYSGLAWYQQKPGKAPKLLIYYVSTLAYGIPARFSGSGSGTDFTLTISSLEPEDFAVYYCQTYEDVSAVTFGQGTKVEIKRTVAAPSVFIFPPSDEQLKSGTAEVVCLLNNFYPREAKVQWKVDNALQSGNSEESVTEQDSKDSTYSLSSTLTLSKADYEKHKVYACEVTHQGLSSPVTKSFNRGEC
heavy 2: QVQLVESGGGVVQPGRSLRLSCAASGFTFSEWYFMSWVRQAPGKGLEWVASIDTGSGSIDYAEWVEGRFTISRDNSKNTLYLQMNSLRAEDTAVYYCARDIGIDYNFWGPGTLVTVSSASTKGPSVFPLAPSSKSTSGGTAALGCLVEDYFPEPVTVSWNSGALTSGVHTFPAVLESSGLYSLSSVVTVPSSSLGTKTYICNVNHKPSNTKVDKRVEPKSCDKTHTCPPCPAPELRRGPSVFLFPPKPKDTLMISRTPEVTCVVVDVSHEDPEVKFNWYVDGVEVHNAKTKPREEQYNSTYRVVSVLTVLHQDWLNGKEYKCKVSNKALPAPIEKTISKAKGQPREPQVYTLPPSRKEMTKNQVSLTCLVKGFYPSDIAVEWESNGQPENNYKTTPPYLDSDGSFFLYSKLTVDKSRWQQGNVFSCSVLHEALHAHYTRKELSLSP
light 2: DIQMTQSPSSLSASVGDRVTITCQTTQSISSYLNWYQQKPGQPPKLLIYYASTKAEGIPARFSGSGLGTDFTLTISSLQPEDFAVYYCHYGISKVSFGQGTKVEIKRTVAAPSVFIFPPSDEQLKSGTAKVVCLLNNFYPREAKVQWKVDNALQSGNSKESVTEQDSKDSTYSLSSTLTLSKADYEKHKVYACEVTHQGLSSPVTKSFNRGEC
Consider B1, for which the binding result in assay [1], in assay [2], in [3], in [4], in [5] and in assay [6] was “no binding (tested: 0.05 micro g/mL)” in each case. Further, the binding result in assay [7], in assay [8] and in assay [9] was “no binding (tested: 0.05 micro g/mL)” each time. In addition, the “IC50 (ng/mL), γ3 gliadin TCR, 100 µM γ3 gliadin” value in assay [10] turned out to be 3.31 ng/mL. Moreover, the “IC50 (ng/mL), α1a gliadin TCR, 250 nM 33mer gliadin” value in assay [11] was 0.27 ng/mL. Also, in assay [11], the “IC50 (ng/mL), α1b gliadin TCR, 250 nM 33mer gliadin” value worked out at 1.25 ng/mL. For the same molecule, in assay [11], the “IC50 (ng/mL), α2 gliadin TCR, 250 nM 33mer gliadin” value was found to be 0.33 ng/mL. Moreover, in [12], the “IC50 (ng/mL), γ1 gliadin TCR, 250 nM γ1 gliadin” value is 1.03 ng/mL. The “IC50 (ng/mL), γ4d gliadin TCR, 100 µM γ4d gliadin” value in assay [13] is 10.1 ng/mL. Further, the “IC50 (ng/mL), γ2 gliadin TCR, 250 nM γ2 gliadin” value in assay [14] is 277 ng/mL. Besides, in assay [15], the “IC50 (ng/mL), γ4a gliadin TCR, 25 µM γ4a gliadin” value came out at 1150 ng/mL. Moreover, the “IC50 (ng/mL), BC hordein TCR, 250 nM BC hordein” value in assay [16] came to 9.7 ng/mL. Moreover, in assay [17], the “IC50 (ng/mL), ω1 gliadin TCR, 25 µM ω1/2 gliadin” value was found to be 2.17 ng/mL. For the same molecule, the “IC50 (ng/mL), ω2 gliadin TCR, 250 nM ω1/2 gliadin” value in [17] was determined as 0.22 ng/mL.

B2: DQN0344H1013/L0620//DQN0385H1270/L0681-F6.v2 (bispecific antibody)
heavy 1: B1 heavy 1 with Y403V
light 1: B1 light 1
heavy 2: B1 heavy 2 with Y398V
light 2: B1 light 2 with Q79E
On to B2, for which, in assay [18], the “IC50 (ng/ml)_HLA-DQ2.2, α1a gliadin TCR, 25 µM 33mer gliadin” value was determined as 1.62 ng/mL and the “IC50 (ng/ml)_HLA-DQ2.2, α2 gliadin TCR, 1 µM 33mer gliadin” value turned out to be 4.6 ng/mL. Moreover, the “IC50 (ng/mL), γ3 gliadin TCR, 100 µM γ3 gliadin” value in assay [19] was 4.84 ng/mL. In assay [20], the “IC50 (ng/mL), α1a gliadin TCR, 250 nM 33mer gliadin” value was 0.63 ng/mL; the “IC50 (ng/mL), α1b gliadin TCR, 250 nM 33mer gliadin” value came out at 1.42 ng/mL; the “IC50 (ng/mL), α2 gliadin TCR, 250 nM 33mer gliadin” value was found to be 0.53 ng/mL. For the same molecule, in [21], the “IC50 (ng/mL), γ1 gliadin TCR, 250 nM γ1 gliadin” value worked out at 5.85 ng/mL. Also, in assay [22], the “IC50 (ng/mL), γ4d gliadin TCR, 100 µM γ4d gliadin” value was found to be 27.8 ng/mL. The “IC50 (ng/mL), γ2 gliadin TCR, 250 nM γ2 gliadin” value in assay [23] was 280 ng/mL. In addition, in assay [24], the “IC50 (ng/mL), γ4a gliadin TCR, 25 µM γ4a gliadin” value came out at 1980 ng/mL. Also, the “IC50 (ng/mL), BC hordein TCR, 250 nM BC hordein” value in assay [25] was determined as 25.2 ng/mL. Moreover, in [26], the “IC50 (ng/mL), ω1 gliadin TCR, 25 µM ω1/2 gliadin” value stood at 3.19 ng/mL and the “IC50 (ng/mL), ω2 gliadin TCR, 250 nM ω1/2 gliadin” value was 0.49 ng/mL.

The values above are taken from US20240400693A1 (Chugai, published 2024).
